Patent publication US10941182 (Amgen, dated 2021)
Starred links: 1 amine or outer side, 2 acyl side, 3 side chain; linkers in the order of their positions; H or OH if unused. Non-standard residues stand in square brackets, D forms with d. *: point of attachment. AC4Abu = α-carboxy-4-aminobutyric acid, O=C(C(CCN[*:1])C(=O)[*:3])[*:2]; Oic = O=C(O)[C@@H]1C[C@@H]2CCCC[C@@H]2N1; Phe(4-Cl) = N[C@@H](Cc1ccc(Cl)cc1)C(=O)O; d(β3hF) = N[C@@H](CC(=O)O)Cc1ccccc1; NMeR = CN[C@@H](CCCNC(=N)N)C(=O)O; Palmitoyl = CCCCCCCCCCCCCCCC(=O)*; β3hF = N[C@H](CC(=O)O)Cc1ccccc1; Cha = N[C@@H](CC1CCCCC1)C(=O)O; αMeP = C[C@@]1(C(=O)O)CCCN1; β3hP = O=C(O)C[C@@H]1CCCN1; Ac6c = NC1(C(=O)O)CCCCC1; Nle = CCCC[C@H](N)C(=O)O; AEEA = NCCOCCOCC(=O)O; Aib = CC(C)(N)C(=O)O; βAla = NCCC(=O)O

T1: rat APJ receptor (rat, UniProt Q9JHG3 1-377)
T1 sequence (looked up): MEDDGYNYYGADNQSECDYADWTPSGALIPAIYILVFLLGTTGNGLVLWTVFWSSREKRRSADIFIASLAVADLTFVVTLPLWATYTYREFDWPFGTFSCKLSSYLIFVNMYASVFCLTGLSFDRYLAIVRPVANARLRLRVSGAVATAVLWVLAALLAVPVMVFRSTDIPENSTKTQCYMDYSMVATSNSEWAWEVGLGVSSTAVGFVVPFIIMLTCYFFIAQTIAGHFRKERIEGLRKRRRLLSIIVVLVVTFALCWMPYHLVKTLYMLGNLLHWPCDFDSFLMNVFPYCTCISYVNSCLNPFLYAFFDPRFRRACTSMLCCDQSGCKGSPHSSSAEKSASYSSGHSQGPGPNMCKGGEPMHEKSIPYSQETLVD

T2: human APJ receptor (human, UniProt P35414 1-380)
T2 sequence (looked up): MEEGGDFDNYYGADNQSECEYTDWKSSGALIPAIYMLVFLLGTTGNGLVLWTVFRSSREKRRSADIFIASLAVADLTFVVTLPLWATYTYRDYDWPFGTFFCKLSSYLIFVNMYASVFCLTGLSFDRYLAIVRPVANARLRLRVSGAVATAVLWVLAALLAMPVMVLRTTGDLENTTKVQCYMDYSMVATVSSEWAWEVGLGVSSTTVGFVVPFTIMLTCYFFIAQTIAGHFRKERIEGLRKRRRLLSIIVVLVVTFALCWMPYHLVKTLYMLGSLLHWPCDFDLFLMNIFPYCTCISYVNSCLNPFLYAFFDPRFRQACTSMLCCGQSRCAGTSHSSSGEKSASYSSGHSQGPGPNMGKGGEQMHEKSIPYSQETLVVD


Assays:
rat APJ receptor = target: T1, rat APJ receptor; experiment: cell-based or functional assay
human APJ receptor = target: T2, human APJ receptor; experiment: cell-based or functional assay

EC50 Rat APJ Receptor (rat APJ receptor) [nM]	EC50 Human APJ Receptor (human APJ receptor) [nM]	Binder
7.68	1.1	Palmitoyl-[AC4Abu][AEEA][AEEA][dQ]RP[NMeR][Cha]SHKG[Oic][Nle][βAla][d(β3hF)]-OH (SMILES CCCCCCCCCCCCCCCC(=O)NCCC(C(=O)O)C(=O)NCCOCCOCC(=O)NCCOCCOCC(=O)N[C@H](CCC(N)=O)C(=O)N[C@@H](CCCNC(=N)N)C(=O)N1CCC[C@H]1C(=O)N(C)[C@@H](CCCNC(=N)N)C(=O)N[C@@H](CC1CCCCC1)C(=O)N[C@@H](CO)C(=O)N[C@@H](Cc1c[nH]cn1)C(=O)N[C@@H](CCCCN)C(=O)NCC(=O)N1[C@H](C(=O)N[C@@H](CCCC)C(=O)NCCC(=O)N[C@@H](CC(=O)O)Cc2ccccc2)C[C@@H]2CCCC[C@@H]21) [SEQ ID NO: 572]
52.2	22.9	Palmitoyl-[AC4Abu][AEEA][AEEA][dQ]RP[NMeR][Cha]SHKG[Oic][Nle][Ac6c][Phe(4-Cl)]-OH (SMILES CCCCCCCCCCCCCCCC(=O)NCCC(C(=O)O)C(=O)NCCOCCOCC(=O)NCCOCCOCC(=O)N[C@H](CCC(N)=O)C(=O)N[C@@H](CCCNC(=N)N)C(=O)N1CCC[C@H]1C(=O)N(C)[C@@H](CCCNC(=N)N)C(=O)N[C@@H](CC1CCCCC1)C(=O)N[C@@H](CO)C(=O)N[C@@H](Cc1c[nH]cn1)C(=O)N[C@@H](CCCCN)C(=O)NCC(=O)N1[C@H](C(=O)N[C@@H](CCCC)C(=O)NC2(C(=O)N[C@@H](Cc3ccc(Cl)cc3)C(=O)O)CCCCC2)C[C@@H]2CCCC[C@@H]21) [SEQ ID NO: 584]
4.24	2.17	Palmitoyl-[AC4Abu][AEEA][AEEA][dQ]RP[NMeR][Cha]SHKG[Oic][Nle][d(β3hF)]-OH (SMILES CCCCCCCCCCCCCCCC(=O)NCCC(C(=O)O)C(=O)NCCOCCOCC(=O)NCCOCCOCC(=O)N[C@H](CCC(N)=O)C(=O)N[C@@H](CCCNC(=N)N)C(=O)N1CCC[C@H]1C(=O)N(C)[C@@H](CCCNC(=N)N)C(=O)N[C@@H](CC1CCCCC1)C(=O)N[C@@H](CO)C(=O)N[C@@H](Cc1c[nH]cn1)C(=O)N[C@@H](CCCCN)C(=O)NCC(=O)N1[C@H](C(=O)N[C@@H](CCCC)C(=O)N[C@@H](CC(=O)O)Cc2ccccc2)C[C@@H]2CCCC[C@@H]21) [SEQ ID NO: 573]
4.42	1.78	Palmitoyl-[AC4Abu][AEEA][AEEA][dQ]RP[NMeR][Cha]SHKG[Oic][Nle][Aib][β3hF]-OH (SMILES CCCCCCCCCCCCCCCC(=O)NCCC(C(=O)O)C(=O)NCCOCCOCC(=O)NCCOCCOCC(=O)N[C@H](CCC(N)=O)C(=O)N[C@@H](CCCNC(=N)N)C(=O)N1CCC[C@H]1C(=O)N(C)[C@@H](CCCNC(=N)N)C(=O)N[C@@H](CC1CCCCC1)C(=O)N[C@@H](CO)C(=O)N[C@@H](Cc1c[nH]cn1)C(=O)N[C@@H](CCCCN)C(=O)NCC(=O)N1[C@H](C(=O)N[C@@H](CCCC)C(=O)NC(C)(C)C(=O)N[C@H](CC(=O)O)Cc2ccccc2)C[C@@H]2CCCC[C@@H]21) [SEQ ID NO: 577]
19.8	8.01	Palmitoyl-[AC4Abu][AEEA][AEEA][dQ]RP[NMeR][Cha]SHKG[Oic][Nle][αMeP][d(β3hF)]-OH (SMILES CCCCCCCCCCCCCCCC(=O)NCCC(C(=O)O)C(=O)NCCOCCOCC(=O)NCCOCCOCC(=O)N[C@H](CCC(N)=O)C(=O)N[C@@H](CCCNC(=N)N)C(=O)N1CCC[C@H]1C(=O)N(C)[C@@H](CCCNC(=N)N)C(=O)N[C@@H](CC1CCCCC1)C(=O)N[C@@H](CO)C(=O)N[C@@H](Cc1c[nH]cn1)C(=O)N[C@@H](CCCCN)C(=O)NCC(=O)N1[C@H](C(=O)N[C@@H](CCCC)C(=O)N2CCC[C@@]2(C)C(=O)N[C@@H](CC(=O)O)Cc2ccccc2)C[C@@H]2CCCC[C@@H]21) [SEQ ID NO: 570]
14.1	3.58	Palmitoyl-[AC4Abu][AEEA][AEEA][dQ]RP[NMeR][Cha]SHKG[Oic][Nle]P[β3hF]-OH (SMILES CCCCCCCCCCCCCCCC(=O)NCCC(C(=O)O)C(=O)NCCOCCOCC(=O)NCCOCCOCC(=O)N[C@H](CCC(N)=O)C(=O)N[C@@H](CCCNC(=N)N)C(=O)N1CCC[C@H]1C(=O)N(C)[C@@H](CCCNC(=N)N)C(=O)N[C@@H](CC1CCCCC1)C(=O)N[C@@H](CO)C(=O)N[C@@H](Cc1c[nH]cn1)C(=O)N[C@@H](CCCCN)C(=O)NCC(=O)N1[C@H](C(=O)N[C@@H](CCCC)C(=O)N2CCC[C@H]2C(=O)N[C@H](CC(=O)O)Cc2ccccc2)C[C@@H]2CCCC[C@@H]21) [SEQ ID NO: 575]
0.991	1	Palmitoyl-[AC4Abu][AEEA][AEEA][dQ]RP[NMeR][Cha]SHKG[Oic][Nle][Aib][d(β3hF)]-OH (SMILES CCCCCCCCCCCCCCCC(=O)NCCC(C(=O)O)C(=O)NCCOCCOCC(=O)NCCOCCOCC(=O)N[C@H](CCC(N)=O)C(=O)N[C@@H](CCCNC(=N)N)C(=O)N1CCC[C@H]1C(=O)N(C)[C@@H](CCCNC(=N)N)C(=O)N[C@@H](CC1CCCCC1)C(=O)N[C@@H](CO)C(=O)N[C@@H](Cc1c[nH]cn1)C(=O)N[C@@H](CCCCN)C(=O)NCC(=O)N1[C@H](C(=O)N[C@@H](CCCC)C(=O)NC(C)(C)C(=O)N[C@@H](CC(=O)O)Cc2ccccc2)C[C@@H]2CCCC[C@@H]21) [SEQ ID NO: 569]
4.81	1.49	Palmitoyl-[AC4Abu][AEEA][AEEA][dQ]RP[NMeR][Cha]SHKG[Oic][Nle][β3hP][d(β3hF)]-OH (SMILES CCCCCCCCCCCCCCCC(=O)NCCC(C(=O)O)C(=O)NCCOCCOCC(=O)NCCOCCOCC(=O)N[C@H](CCC(N)=O)C(=O)N[C@@H](CCCNC(=N)N)C(=O)N1CCC[C@H]1C(=O)N(C)[C@@H](CCCNC(=N)N)C(=O)N[C@@H](CC1CCCCC1)C(=O)N[C@@H](CO)C(=O)N[C@@H](Cc1c[nH]cn1)C(=O)N[C@@H](CCCCN)C(=O)NCC(=O)N1[C@H](C(=O)N[C@@H](CCCC)C(=O)N2CCC[C@H]2CC(=O)N[C@@H](CC(=O)O)Cc2ccccc2)C[C@@H]2CCCC[C@@H]21) [SEQ ID NO: 571]
0.736	0.462	Palmitoyl-[AC4Abu][AEEA][AEEA][dQ]RP[NMeR][Cha]SHKG[Oic][Aib][Phe(4-Cl)]-OH (SMILES CCCCCCCCCCCCCCCC(=O)NCCC(C(=O)O)C(=O)NCCOCCOCC(=O)NCCOCCOCC(=O)N[C@H](CCC(N)=O)C(=O)N[C@@H](CCCNC(=N)N)C(=O)N1CCC[C@H]1C(=O)N(C)[C@@H](CCCNC(=N)N)C(=O)N[C@@H](CC1CCCCC1)C(=O)N[C@@H](CO)C(=O)N[C@@H](Cc1c[nH]cn1)C(=O)N[C@@H](CCCCN)C(=O)NCC(=O)N1[C@H](C(=O)NC(C)(C)C(=O)N[C@@H](Cc2ccc(Cl)cc2)C(=O)O)C[C@@H]2CCCC[C@@H]21) [SEQ ID NO: 580]
4.9	1.8	Palmitoyl-[AC4Abu][AEEA][AEEA][dQ]RP[NMeR][Cha]SHKG[Oic][Nle][β3hF]-OH (SMILES CCCCCCCCCCCCCCCC(=O)NCCC(C(=O)O)C(=O)NCCOCCOCC(=O)NCCOCCOCC(=O)N[C@H](CCC(N)=O)C(=O)N[C@@H](CCCNC(=N)N)C(=O)N1CCC[C@H]1C(=O)N(C)[C@@H](CCCNC(=N)N)C(=O)N[C@@H](CC1CCCCC1)C(=O)N[C@@H](CO)C(=O)N[C@@H](Cc1c[nH]cn1)C(=O)N[C@@H](CCCCN)C(=O)NCC(=O)N1[C@H](C(=O)N[C@@H](CCCC)C(=O)N[C@H](CC(=O)O)Cc2ccccc2)C[C@@H]2CCCC[C@@H]21) [SEQ ID NO: 578]
8.89	5.15	Palmitoyl-[AC4Abu][AEEA][AEEA][dQ]RP[NMeR][Cha]SHKG[Oic][Nle]P[d(β3hF)]-OH (SMILES CCCCCCCCCCCCCCCC(=O)NCCC(C(=O)O)C(=O)NCCOCCOCC(=O)NCCOCCOCC(=O)N[C@H](CCC(N)=O)C(=O)N[C@@H](CCCNC(=N)N)C(=O)N1CCC[C@H]1C(=O)N(C)[C@@H](CCCNC(=N)N)C(=O)N[C@@H](CC1CCCCC1)C(=O)N[C@@H](CO)C(=O)N[C@@H](Cc1c[nH]cn1)C(=O)N[C@@H](CCCCN)C(=O)NCC(=O)N1[C@H](C(=O)N[C@@H](CCCC)C(=O)N2CCC[C@H]2C(=O)N[C@@H](CC(=O)O)Cc2ccccc2)C[C@@H]2CCCC[C@@H]21) [SEQ ID NO: 567]
